Experimental data from patent US20260184814A1, “BROADLY NE[…] INFLUENZA NEURAMINIDASE” (priority 2022, published 2026).

Legend:
[1] = system: NA-1: N1 from A/Vietnam/1203/2004
[2] = system: H5N6_NA_A_Hangzhou_01_2021
[3] = system: NA-16: N2 from A/Switzerland/8060/2017
[4] = system: NA-5: N2 from A/Tanzania/205/2010
[5] = system: NA-19: N2 from A/Tanzania/205/2010 (82-469) S245NS247T
[6] = system: H7N3_NA_A_Ck_Ja_PAVX17170_2017
[7] = system: H7N7_NA_A_Ck_621572_03
[8] = system: NA-18: N2 from A/Hong-Kong/2671/2019
[9] = system: NA-17: N2 from A/South_Australia/34/2019
[10] = system: H7N9_NA_A_Anhui_1_2013

B1: FNI9-v13.8 (protein)
heavy chain: QVQLVQSGAEVKEPGSSVTVSCKASGGSFNNQAISWVRQAPGQGLEWMGGIFPISGTPTSAQRFQGRVTFTADESTTTVYMDLSSLRSDDTAVYYCARAGSDYFNRDLGWENYYFASWGQGTLVTVSS
light chain: EIVMTQSPATLSVSPGERATLSCRASRSVSSNLAWYQQKPGQAPRLLIYDASTRATGFSARFAGSGSGTEFTLTISSLQSEDSAIYYCQQYNNWPPWTFGQGTKVEIK
- MUNANA vs NA antigens | A [1]: 30.6 µg/mL
- ELLA vs pseudoviruses | J [2]: 2.03 µg/mL
- MUNANA vs NA antigens | C [3]: 834.9 µg/mL
- MUNANA vs NA antigens | B [4]: 158.3 µg/mL
- MUNANA vs NA antigens | F [5]: 1073 µg/mL
- ELLA vs pseudoviruses | H [6]: 11.57 µg/mL
- ELLA vs pseudoviruses | K [7]: 53.76 µg/mL
- MUNANA vs NA antigens | E [8]: 832.7 µg/mL
- MUNANA vs NA antigens | D [9]: 80455 µg/mL
- ELLA vs pseudoviruses | M [10]: 1.701 µg/mL
